Data from PMC2736636.
Where two headings read alike, the source gives them in different places.

Columns and labels:
Assay in all cases: EMSA
[1] = molecular target: T1, O6-alkylguanine-DNA alkyltransferase (AGT, MGMT) (human, UniProt P16455 1-207)
[2] = molecular target: T1, O6-alkylguanine-DNA alkyltransferase …; remark: listed apart in the source
[3] = molecular target: T1, O6-alkylguanine-DNA alkyltransferase …; remark: listed apart in the source

T1 sequence (P16455 whole entry): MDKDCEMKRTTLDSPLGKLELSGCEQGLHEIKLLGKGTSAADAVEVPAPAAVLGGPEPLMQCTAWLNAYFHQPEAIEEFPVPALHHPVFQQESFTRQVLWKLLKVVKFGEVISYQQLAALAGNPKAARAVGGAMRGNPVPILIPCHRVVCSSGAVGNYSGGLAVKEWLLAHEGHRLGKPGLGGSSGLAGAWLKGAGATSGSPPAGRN

B1: duplex 16mer (A/B) (dsDNA)
DNA 1: GACTGACTGACTGACT
DNA 2: AGTCAGTCAGTCAGTC
[1]
  Ka: 16900 M⁻¹
[2]
  Ka: 3.97 ± 0.02 log10 M-1
[3]
  Ka: 2.58e+06 M⁻¹
